Test results as given in IntAct's records for PubMed 20133640.

Target: ssph2_salty sspH2 (UniProt P0CE12)
Sequence (P0CE12 whole entry): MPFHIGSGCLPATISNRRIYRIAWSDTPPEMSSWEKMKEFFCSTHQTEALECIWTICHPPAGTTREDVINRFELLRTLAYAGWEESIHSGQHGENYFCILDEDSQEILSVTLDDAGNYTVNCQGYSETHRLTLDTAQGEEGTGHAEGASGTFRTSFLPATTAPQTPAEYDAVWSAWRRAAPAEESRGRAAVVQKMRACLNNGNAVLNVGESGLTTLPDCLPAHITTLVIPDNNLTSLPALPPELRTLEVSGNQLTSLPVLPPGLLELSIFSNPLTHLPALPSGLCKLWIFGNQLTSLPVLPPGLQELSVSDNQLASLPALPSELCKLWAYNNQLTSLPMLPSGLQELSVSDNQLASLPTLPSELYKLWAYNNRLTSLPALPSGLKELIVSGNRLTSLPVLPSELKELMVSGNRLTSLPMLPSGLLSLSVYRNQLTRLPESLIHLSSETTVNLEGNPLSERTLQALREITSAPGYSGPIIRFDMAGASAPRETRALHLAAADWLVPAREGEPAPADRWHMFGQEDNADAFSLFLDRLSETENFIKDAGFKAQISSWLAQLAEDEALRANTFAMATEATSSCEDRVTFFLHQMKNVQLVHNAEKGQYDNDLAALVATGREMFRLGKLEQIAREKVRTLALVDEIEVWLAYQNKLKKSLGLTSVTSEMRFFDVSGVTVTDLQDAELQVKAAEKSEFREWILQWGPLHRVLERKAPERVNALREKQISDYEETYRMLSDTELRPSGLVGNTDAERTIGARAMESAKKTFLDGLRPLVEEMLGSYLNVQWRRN

Chain of Ubiquitin-conjugating enzyme E2 D3 (Homo sapiens), P61077 A96D (P61077 whole entry A96D): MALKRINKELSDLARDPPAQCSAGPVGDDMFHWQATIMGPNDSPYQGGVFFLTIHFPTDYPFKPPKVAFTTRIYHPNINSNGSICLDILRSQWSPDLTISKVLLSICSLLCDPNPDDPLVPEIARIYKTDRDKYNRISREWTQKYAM

Ubiquitin-conjugating enzyme E2 D3 (Homo sapiens), P61077 A96D
effect of a mutation on the interaction: decreasing interaction
